B1: ATL3 (parent)
chain: QELEEEIKELYENFCKHNGSKNVF
B2: PTPRD (parent)
chain: ITWFKDFLPVDTSNNNGRIKQLRS

Variants of: B1
Assay: protein stability index of a GFP-peptide fusion (GPS, HEK-293T) (PSI 1-6); higher = more stable
Conditions: c terminus: a fixed tail appended
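Note: lentivirally expressed fusions sorted by FACS into six bins by GFP to DsRed ratio, PSI derived from sequencing read proportions per bin multiplied by bin number.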

Protein stability index, by site and new letter:
G19: N 2.69, H 2.87, W 1.91, C 2.31, L 2.55, I 2.99, T 2.25, M 2.46, P 3.03, R 2.54, D 2.46, V 2.35, Y 2.85, E 2.11, F 2.65, Q 2.73, A 2.59, K 2.4, S 3.18
F24: Q 2.93, M 3.06, W 2.46, A 3.45, R 3.24, C 3.17, P 2.74, D 2.38, G 2.73, E 2.9, L 2.56, I 2.48, T 3.11, V 3.01, S 3.28, H 3.37, Y 2.65, N 3.07
N18: Q 2.68, L 3.23, E 2.36, H 2.94, S 2.42, K 2.55, F 2.3, V 2.58, I 2.04, C 2.75, G 2.34, D 2.28, A 2.24, R 2.86, P 2.72, Y 2.37, T 2.6, M 2.69, W 2.85
K16: C 3.43, G 3.51, W 2.91, D 3.53, M 2.79, T 3.03, N 2.36, Y 2.49, P 3.88, Q 3.11, E 3.81, A 3.17, I 2.86, V 3.15, H 2.74, L 3.09, R 2.73, S 2.99, F 3.11
H17: R 2.6, W 2.46, D 2.69, L 2.99, P 3.34, K 2.67, A 2.52, T 2.63, V 2.72, Y 2.42, C 2.65, F 3.2, N 2.51, Q 2.44, E 2.51, G 2.75, S 2.62, M 2.96, I 2.94
K21: E 1.96, F 1.65, T 2.08, V 1.82, P 2.37, Y 1.55, W 1.81, M 1.85, L 2.15, S 1.57, R 2.12, G 2.49, D 2.11, C 2.1, I 2.12, A 2.25, N 2.42, Q 2.55, H 2.16
N22: A 2.96, M 2.8, R 3.3, D 1.91, F 2.59, K 3.17, W 1.48, C 2.34, Y 2.05, H 2.3, T 2.16, G 2.28, E 2.38, V 2.62, P 3.25, Q 2.98, S 2.96, L 2.57, I 2.48
C15: Y 3.77
V23: F 2.22, G 2.94, C 2.27, I 2.62, E 3.07, P 2.61, M 3.24, W 2.85, R 3.44, H 3.56, Q 2.68, Y 1.94, S 2.38, L 2.68, K 2.89, T 2.49, N 3.06, D 2.16, A 2.73
S20: P 3.46, T 2.7, V 2.93, H 2.59, G 2.48, W 2.16, L 2.41, N 2.48, A 2.66, E 2.04, Y 2.29, M 2.24, D 1.97, I 2.54, R 3.77, F 2, K 3.17, C 2.28, Q 2.45

Variants of: B2
Assay: as above
Conditions: c terminus: a fixed tail appended

Protein stability index, by site and new letter:
P9: I 2.02, G 1.72, H 1.45, E 2, L 2.84, A 2, M 2.31, C 1.58, K 1.96, D 2.09, F 1.93
F7: Y 1.99, D 2.74, M 2.46, G 2.25, S 2.36, A 2.45, H 2.76, N 2.47, L 2.41, P 2.32, I 2.26, T 2.38, E 2.45, C 2.31, R 1.8, W 1.82, K 1.88, Q 2.05, V 1.85
I1: K 2.99, H 3.47, R 3.03, G 3.39, E 3.66, A 3.26, Q 2.71, T 3.02, S 3.17, P 3.97, L 2.33, W 2.17, F 2.03, N 3.69, C 1.9, Y 1.92, M 2.62, V 2.15, D 3.88
L8: C 1.81, R 2.41, M 1.49, P 1.96, Y 1.64, V 1.77, N 2.1, H 1.93, G 2, Q 1.78, F 1.88, T 2.23, A 2.14, I 2.32, S 2.04, W 1.76, E 1.85, K 2.28, D 2.31
F4: G 3.35, C 1.94, P 2.74, L 1.87, H 2.27, W 2.02, R 2.49, M 1.59, V 1.87, A 2.17, S 1.57, I 1.62, D 3.25, N 2.57, Q 2.21, T 2.03, Y 1.95, E 3.97, K 2.37
T2: R 1.59, P 3, N 2, F 2.41, K 2.03, H 2.15, V 1.86, D 1.53, S 2.12, G 2.78, W 2.21, M 1.96, Y 1.68, E 2.33, C 2.09, A 2.34, I 2.18, L 1.41, Q 1.84
K5: E 2.91, F 1.97, G 2.17, I 2.19, A 1.98, Q 2.07, H 2.06, N 2.12, S 2.37, Y 2.75, C 2.25, L 2.08, M 2.43, D 2.44, W 1.66, T 2.1, P 2.24, R 1.79, V 1.51
W3: E 4.07, G 3.03, Q 3.13, C 2.82, R 3.1, A 3.76, M 2.95, S 3.62, L 2.31, P 3.75, V 2.46, I 1.93, K 2.85, T 3.3, N 3.23, H 3.33, D 3.43, Y 2.95, F 2.25
D6: T 1.6, C 2.26, L 3.08, K 1.85, A 1.78, F 3.07, S 2.27, I 3.07, N 1.94, V 2.3, E 2.36, Y 2.85, Q 1.4, R 2.37, M 2.14, G 2.27, H 1.9, W 2.26, P 1.85
